# Values of other authors, collected in patent US20250101104A1, “BISPECIFIC MOLECULE WITH TUNABLE AFFINITY TO A TARGETED ANTIGEN” (MABSWITCH INC., priority 2022, published 2025).
# B1: MGDO06: CD3×CD123 DART (Macrogenics) (antibody, chains of the INN, looked up, V domains shown)
# VH: EVQLVQSGAELKKPGASVKVSCKASGYTFTDYYMKWVRQAPGQGLEWIGDIIPSNGATFYNQKFKGRVTITVDKSTSTAYMELSSLRSEDTAVYYCARSHLLRASWFAYWGQGTLVTVSS
# VL: DFVMTQSPDSLAVSLGERVTMSCKSSQSLLNSGNQKNYLTWYQQKPGQPPKLLIYWASTRESGVPDRFSGSGSGTDFTLTISSLQAEDVAVYYCQNDYSYPYTFGQGTKLEIK
# VH2: EVQLVESGGGLVQPGGSLRLSCAASGFTFSTYAMNWVRQAPGKGLEWVGRIRSKYNNYATYYADSVKDRFTISRDDSKNSLYLQMNSLKTEDTAVYYCVRHGNFGNSYVSWFAYWGQGTLVTVSS
# VL2: QAVVTQEPSLTVSPGGTVTLTCRSSTGAVTTSNYANWVQQKPGQAPRGLIGGTNKRAPWTPARFSGSLLGGKAALTITGAQAEDEADYYCALWYSNLWVFGGGTKLTVL
# modifications: DART
# Tested on: AML cell lines and primary AML blasts
# Conditions: in vitro and in NOD SCID mice injected with human AML
molecule,measurement,value
B1,killing of AML cell lines and primary AML blasts,dose-dependent killing
